According to article PMC13223232, “Structural basis for TRF2-RAP1 recruitment by EBNA1 at the EBV origin of replication” (Scientific Reports, 2025):

B1: EBNA1 DNA binding domain (DBD) aa 401–607 (domain or fragment)
chain: GRRPFFHPVGEADYFEYHQEGGPDGEPDVPPGAIEQGPADDPGEGPSTGPRGQGDGGRRKKGGWFGKHRGQGGSNPKFENIAEGLRALLARSHVERTTDEGTWVAGVFVYGGSKTSLYNLRRGTALAIPQCRLTPLSRLPFGMAPGPGPQPGPLRESIVCYFMVFLQTHIFAEVLKDAIKDLVMTKPAPTCNIRVTVCSFDDGVDLP
notes: also called EBNA1 DBD; EBNA1 401–607; source: E. coli, purified (Ni-NTA, SEC); not shown: His6-SUMO, N-terminal, cleaved
B2: GST-TRFH domain (amino acids 85–287) (domain or fragment, human, UniProt Q15554 85-287, looked up)
chain: AGEARLEEAVNRWVLKFYFHEALRAFRGSRYGDFRQIRDIMQALLVRPLGKEHTVSRLLRVMQCLSRIEEGENLDCSFDMEAELTPLESAINVLEMIKTEFTLTEAVVESSRKLVKEAAVIICIKNKEFEKASKILKKHMSKDPTTQKLRNDLLNIIREKNLAHPVIQNFSYETFQQKMLRFLESHLDDAEPYLLTMAKKALK
notes: also called TRF2 homodimerization domain; TRF2 dimerization domain; source: E. coli, purified to near homogeneity; not shown: GST, N-terminal, kept
B3: full length TRF2/Rap1 complex (complex)
chain 1: MAAGAGTAGPASGPGVVRDPAASQPRKRPGREGGEGARRSDTMAGGGGSSDGSGRAAGRRASRSSGRARRGRHEPGLGGPAERGAGEARLEEAVNRWVLKFYFHEALRAFRGSRYGDFRQIRDIMQALLVRPLGKEHTVSRLLRVMQCLSRIEEGENLDCSFDMEAELTPLESAINVLEMIKTEFTLTEAVVESSRKLVKEAAVIICIKNKEFEKASKILKKHMSKDPTTQKLRNDLLNIIREKNLAHPVIQNFSYETFQQKMLRFLESHLDDAEPYLLTMAKKALKSESAASSTGKEDKQPAPGPVEKPPREPARQLRNPPTTIGMMTLKAAFKTLSGAQDSEAAFAKLDQKDLVLPTQALPASPALKNKRPRKDENESSAPADGEGGSELQPKNKRMTISRLVLEEDSQSTEPSAGLNSSQEAASAPPSKPTVLNQPLPGEKNPKVPKGKWNSSNGVEEKETWVEEDELFQVQAAPDEDSTTNITKKQKWTVEESEWVKAGVQKYGEGNWAAISKNYPFVNRTAVMIKDRWRTMKRLGMN
chain 2: MAEAMDLGKDPNGPTHSSTLFVRDDGSSMSFYVRPSPAKRRLSTLILHGGGTVCRVQEPGAVLLAQPGEALAEASGDFISTQYILDCVERNERLELEAYRLGPASAADTGSEAKPGALAEGAAEPEPQRHAGRIAFTDADDVAILTYVKENARSPSSVTGNALWKAMEKSSLTQHSWQSLKDRYLKHLRGQEHKYLLGDAPVSPSSQKLKRKAEEDPEAADSGEPQNKRTPDLPEEEYVKEEIQENEEAVKKMLVEATREFEEVVVDESPPDFEIHITMCDDDPPTPEEDSETQPDEEEEEEEEKVSQPEVGAAIKIIRQLMEKFNLDLSTVTQAFLKNSGELEATSAFLASGQRADGYPIWSRQDDIDLQKDDEDTREALVKKFGAQNVARRIEFRKK
notes: also called pre-assembled TRF2-Rap1 complex; source: E. coli, each purified (Ni-NTA, SEC); pre-assembled complex purified by glycerol gradient; not shown: His6-SUMO, N-terminal, cleaved
B4: EBNA1 459–607 (domain or fragment)
chain: RKKGGWFGKHRGQGGSNPKFENIAEGLRALLARSHVERTTDEGTWVAGVFVYGGSKTSLYNLRRGTALAIPQCRLTPLSRLPFGMAPGPGPQPGPLRESIVCYFMVFLQTHIFAEVLKDAIKDLVMTKPAPTCNIRVTVCSFDDGVDLP
notes: also called shorter EBNA1 459–607; core structured DBD; source: E. coli

Columns and labels:
[1] = target: B3; experiment: native gel or EMSA; IRD700-labelled 60 bp ½ DS DNA probe (5 nM); Rap1, TRF2 or TRF2 + Rap1 titrated up to 480 nM without EBNA1, with EBNA1 401–607 or with EBNA1 Δ90–325; 10 mM HEPES pH 7.5, 300 mM KCl, 5 mM MgCl2, 1 mM ZnCl2, 5 mM BME, 0.05% NP-40, 5% glycerol; 1.4% agarose gel; all proteins meet on the DNA; settings: both partners purified
[2] = target: the molecule itself; experiment: cryo-EM structure; ½ DS + EBNA1 DBD + TRF2 + Rap1 (1 : 4 : 2.5 : 2.5), GraFix (10-30% glycerol, 0.125% glutaraldehyde); estimated 7.1 Å reconstruction
full-length Rap1 = target: T1, full-length Rap1 (human, UniProt Q9NYB0 1-399); experiment: cross-linking; zero-length EDC/Sulfo-NHS cross-linking with LC-MS/MS; complex mixed 1 ½ DS DNA : 4 EBNA1 401–607 : 2.5 TRF2 : 2.5 Rap1, glycerol-gradient purified, 1 mg/mL in 20 mM MES pH 6.8, 100 mM NaCl, 1 mM MgCl2, 10 µM ZnCl2, 0.5 mM TCEP; 10 mM crosslinker, room temperature, 2 h; settings: both partners purified
T1 construct: also called TERF2IP; source: E. coli, purified (Ni-NTA, SEC); not shown: His6-SUMO, N-terminal, cleaved
T1 sequence (looked up): B3 chain 2

full-length TRF2 = target: T2, full-length TRF2 (human, UniProt Q15554 1-542); experiment: as above; settings: both partners purified
T2 construct: also called TERF2; source: E. coli, purified (Ni-NTA, SEC); not shown: His6-SUMO, N-terminal, cleaved
T2 sequence (looked up): B3 chain 1

[3] = target: B1; experiment: native gel or EMSA; supershift of the ½ DS-EBNA1 complex by TRFH (no Myb domain); binding buffer lowered to 100 mM KCl, highest TRFH 10 µM (1000-fold stoichiometric excess); only a weak supershift under standard conditions (300 mM KCl); settings: both partners purified
[4] = target: T3, EBNA1 Δ90–325 3x (E495A D499A E500A) (Epstein-Barr virus, UniProt P03211 1-641, Δ90–325 | E495A | D499A | E500A); experiment: native gel or EMSA; pre-assembled TRF2-Rap1 complex (glycerol-gradient purified) serially diluted and added to pre-assembled ½ DS-EBNA1 complex (20 nM EBNA1 Δ90–325 WT, 3x or 8x, 5 nM ½ DS DNA); binding buffer with 300 mM KCl, pH 7.5; settings: both partners purified
T3 construct: also called 3x mutant EBNA1; source: E. coli, purified (Ni-NTA, SEC); not shown: His6-SUMO, N-terminal, cleaved
T3 sequence: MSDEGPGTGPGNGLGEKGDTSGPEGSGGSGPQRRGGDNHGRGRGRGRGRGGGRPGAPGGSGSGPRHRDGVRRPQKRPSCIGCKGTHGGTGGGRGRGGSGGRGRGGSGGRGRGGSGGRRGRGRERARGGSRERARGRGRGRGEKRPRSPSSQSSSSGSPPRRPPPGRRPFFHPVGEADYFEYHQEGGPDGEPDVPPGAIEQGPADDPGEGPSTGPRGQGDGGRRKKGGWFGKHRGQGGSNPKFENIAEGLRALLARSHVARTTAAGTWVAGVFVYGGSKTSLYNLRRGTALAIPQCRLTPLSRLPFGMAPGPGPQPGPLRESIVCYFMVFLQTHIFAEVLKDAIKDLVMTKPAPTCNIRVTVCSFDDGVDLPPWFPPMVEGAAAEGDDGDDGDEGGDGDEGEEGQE

[5] = target: B2; experiment: native gel or EMSA; supershift of the ½ DS-EBNA1 complex by TRFH (no Myb domain); binding buffer lowered to 100 mM KCl, highest TRFH 10 µM (1000-fold stoichiometric excess); only a weak supershift under standard conditions (300 mM KCl); settings: both partners purified

Binder: B1
- binding result [1]: binds
- binding result [2]: binds
- binding result (full-length Rap1): binds
- binding result (full-length TRF2): binds

Binder: B2
- binding result [3]: binds

Binder: B3
- fold weaker binding than with WT EBNA1 [4]: ~2 fold

Binder: B4
- binding result [5]: binds
